Data as given in the supplement of paper PMC10567573.

B1: PDS5B (parent)
chain: IYKKYALQSAAGKDAAKQIAWIKD

Variants of: B1
Experiment: protein stability index of a GFP-peptide fusion (GPS, HEK-293T) (PSI 1-6); higher = more stable
Details: c terminus: a fixed tail appended
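Note: lentivirally expressed fusions sorted by FACS into six bins by GFP to DsRed ratio, PSI derived from sequencing read proportions per bin multiplied by bin number.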

Protein stability index: each site, then its substitutions
S9: T 2.06; V 2.13; W 1.99; Y 1.75
A10: C 1.72; D 2.53; E 2.38; F 1.37; G 1.71; H 1.84; I 1.89; K 2; L 2.32; M 1.83; N 2.19; P 2.26; Q 2.4; R 1.37; S 2.36; T 2.42; V 2.1; W 1.77; Y 1.75
A11: C 1.58; D 3.03; E 2.43; F 1.75; G 2.65; H 1.75; I 1.73; K 2.5; L 1.8; M 1.78; N 2.61; P 2.27; Q 2.69; R 1.75; S 2.3; T 2.15; V 2.29; W 1.82; Y 1.8
G12: A 1.86; C 1.6; D 3.13; E 2.34; F 1.99; H 1.67; I 1.69; K 1.75; L 1.84; N 2.19; P 2.74; Q 1.58; R 1.88; S 1.96; T 1.71; V 2.08; W 2.63; Y 1.64
K13: A 2.93; C 1.94; D 2.6; E 2.55; F 1.93; G 2.22; H 2.29; I 2.16; L 2.14; M 2.17; N 2.27; P 2.4; Q 2.1; R 2.77; S 2.28; T 2.3; V 2; W 1.84; Y 2.92
D14: A 1.9; C 1.36; E 2.1; F 2.07; G 2.24; H 1.86; I 1.82; K 2.28; L 1.68; M 2.1; N 2.19; P 2.34; Q 2.15; R 2.72; S 2.15; T 1.94; V 2.1; W 2.1; Y 1.85
A15: C 1.89; D 2.35; E 2.7; F 1.75; G 2.9; H 2.22; I 1.69; K 2.76; L 2.64; M 1.83; N 2.5; P 2.56; Q 2.29; R 2.09; S 2.73; T 2.35; V 1.71; W 1.43; Y 1.45
A16: C 2.16; D 2.75; E 2.82; F 1.76; G 2.92; H 2.29; I 2.47; K 2.33; L 2.09; M 2.02; N 2.39; P 2.05; Q 2.35; R 2.12; S 2.47; T 2.46; V 2.98; W 2.11; Y 2.05
K17: A 2.48; C 2.04; D 3.27; E 3.42; F 1.32; G 2.35; H 2.89; I 1.79; L 2.07; M 1.38; N 2.51; P 2.51; Q 2.19; R 2.67; S 2.67; T 2.92; V 2.12; W 1.63; Y 1.66
Q18: A 2.06; C 1.75; D 2.83; E 2.45; F 2.33; G 2.45; H 2.43; I 2.4; K 2.6; L 1.99; M 2.38; N 2.49; P 2.37; R 2.24; S 2.58; T 1.6; V 2.07; W 2.18; Y 1.33
I19: A 2.48; C 2.38; D 3.79; F 2.29; G 3.46; H 3.34; K 3.01; L 1.81; M 1.97; N 3.59; P 3.11; Q 2.52; R 2.38; S 2.6; T 2.77; V 2.49; W 1.93; Y 1.99
A20: C 2.18; D 3.39; E 2.66; F 1.95; G 2.25; H 2.07; I 2.31; K 2.26; L 1.89; M 2.02; N 2.68; P 2.66; Q 2.29; R 1.84; S 2.4; T 2.23; V 2.08; W 2.68; Y 2.22
W21: A 3.22; C 3.02; D 3.05; E 2.91; F 2.31; G 2.92; H 2.75; I 2.88; K 2.65; L 2.19; M 3.2; N 3.83; P 3.57; Q 3.09; R 2.74; S 3.19; T 3.55; V 2.72; Y 2.42
I22: A 3.14; C 2.75; D 3.78; E 4.49; F 2.29; G 2.8; H 3.12; K 3.21; L 2.33; M 2.14; N 3.26; P 3.1; Q 3.27; R 3.43; S 3.09; T 3.31; V 3.21; W 2.28; Y 2.52
K23: A 2.11; C 1.47; D 2.98; E 2.53; F 2.39; G 2.68; H 2.55; I 2.64; L 3.36; M 2; N 2.24; P 2.36; Q 2.23; R 1.52; S 2.98; T 2.18; V 1.54; W 2.62; Y 2.44
D24: A 2; C 2.08; E 1.75; F 2.15; G 2.08; H 2.14; I 1.76; K 2.19; L 2.02; M 1.59; N 2.24; P 2.79; Q 1.7; R 1.97; S 2.42; T 1.94; V 2.52; W 1.66; Y 1.14
